Experimental data reported in the supplement of paper PMC7125110.
± gives the standard error. Variants at the floor of the assay were thinned out.

B1: glmS ribozyme (parent)
chain: AUAAAAGCGCCAGAACUACAGAAAUGUAGUUGACGAGGAGGAGGUUUAUCGAAUUUUCGGCGGAUGCCUCCAAA

What was measured:
Settings in all cases: with glucosamine-6-phosphate
[1] = variants of: B1; test: self-cleavage kobs at 160 uM GlcN6P; higher = faster cleavage; RNA array
Summary of the method: (§1)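 Barcoded ribozyme variants on sequenced MiSeq chips were transcribed in situ by E. coli RNA polymerase and followed at 37 °C through a hybridised Cy3 probe. Glucosamine-6-phosphate at 40 μM to 10 mM in HEPES/KCl/Mg(OAc)2 buffer was flowed in, and tiles were imaged over ~14 h. Signals were normalised to baseline and to non-cleaving reference variants, and per-tile medians were fit to one- or two-exponential decays to give kobs. Weighted Michaelis–Menten fits across concentrations gave kcat and KM.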

[2] = variants of: B1; test: self-cleavage kobs at 640 uM GlcN6P; higher = faster cleavage; RNA array
Summary of the method: as §1

[3] = variants of: B1; test: self-cleavage kobs at 2500 uM GlcN6P; higher = faster cleavage; RNA array
Summary of the method: as §1

[4] = variants of: B1; test: self-cleavage kobs at 10000 uM GlcN6P; higher = faster cleavage; RNA array
Summary of the method: as §1

[5] = variants of: B1; test: self-cleavage kobs at 40 uM GlcN6P; higher = faster cleavage; RNA array
Summary of the method: as §1

| Variant | self-cleavage kobs at 160 uM GlcN6P [1] [s⁻¹] | self-cleavage kobs at 640 uM GlcN6P [2] [s⁻¹] | self-cleavage kobs at 2500 uM GlcN6P [3] [s⁻¹] | self-cleavage kobs at 10000 uM GlcN6P [4] [s⁻¹] | self-cleavage kobs at 40 uM GlcN6P [5] [s⁻¹] |
| --- | --- | --- | --- | --- | --- |
| G7C C68G | < 1e-05 | < 1e-05 | < 1e-05 | < 1e-05 |  |
| G60U U65G |  | < 1e-05 | < 1e-05 | < 1e-05 | < 1e-05 |
| G7A G59U C70A | < 1e-05 |  | < 1e-05 |  |  |
| G66C C68A |  | 0.000128 ± 5.4e-05 | 5.93e-05 ± 2.7e-05 |  | < 1e-05 |
| G59A G62C | < 1e-05 | < 1e-05 | < 1e-05 | < 1e-05 | < 1e-05 |
| G63C C71U | < 1e-05 |  |  | < 1e-05 | < 1e-05 |
| G7U G13U A15C | < 1e-05 | < 1e-05 | < 1e-05 |  |  |
| C8A G44C C68A C71G | < 1e-05 |  |  |  |  |
| C61U C67G C68G |  |  |  |  | 4.73e-05 ± 1.6e-05 |
| G7U U45A | < 1e-05 |  | < 1e-05 |  |  |
| C8G G9U A12U C16G | < 1e-05 | < 1e-05 |  |  |  |
| G60U G62A | < 1e-05 | < 1e-05 |  |  | < 1e-05 |
| G7C C10G U45C | < 1e-05 |  |  |  |  |
| A6C A14C G44U U45C | < 1e-05 |  | < 1e-05 |  |  |
| C8U A42G G63A | < 1e-05 | < 1e-05 | < 1e-05 |  |  |
| G60A C61A C67G C68G |  |  |  |  | 4.45e-05 ± 2.2e-05 |
| G63A G66U |  | < 1e-05 | < 1e-05 | < 1e-05 | < 1e-05 |
| A6G G35C G59A | < 1e-05 | < 1e-05 |  |  |  |
| C8A G51U | < 1e-05 | < 1e-05 |  |  |  |
| G63A A64U |  | < 1e-05 | < 1e-05 | < 1e-05 | < 1e-05 |
| A6U C10A U30G A36G A42C U49C U65A | < 1e-05 | < 1e-05 | < 1e-05 |  |  |
| A6U G38C A64U G66U | < 1e-05 | < 1e-05 | < 1e-05 |  |  |
| G7U A36C A48C A53U | < 1e-05 |  | < 1e-05 |  |  |
| G7C C8G U30C | < 1e-05 | < 1e-05 |  |  |  |

| Variant | self-cleavage kobs at 160 uM GlcN6P [1] [s⁻¹] | self-cleavage kobs at 640 uM GlcN6P [2] [s⁻¹] | self-cleavage kobs at 2500 uM GlcN6P [3] [s⁻¹] | self-cleavage kobs at 10000 uM GlcN6P [4] [s⁻¹] | self-cleavage kobs at 40 uM GlcN6P [5] [s⁻¹] |
| --- | --- | --- | --- | --- | --- |
| G63A U65C |  | < 1e-05 |  | < 1e-05 | < 1e-05 |
| G66A C71U |  | 0.00361 ± 0.0008 |  | 0.0215 ± 0.007 | 0.000673 ± 0.00012 |
| C61A U69A |  |  |  | < 1e-05 | < 1e-05 |
| A6C G7C A15U | < 1e-05 | < 1e-05 | < 1e-05 |  |  |
| C8A A15U A36C A52G | < 1e-05 |  |  |  |  |
| A6U A14C | < 1e-05 |  |  | 4.13e-05 ± 7.6e-06 |  |
| A6C C10A G35A C58G C70G | 4.89e-05 ± 2.3e-05 | 0.000553 ± 0.00014 | 0.000134 ± 4.9e-05 |  |  |
| G59U G63U | < 1e-05 | < 1e-05 | < 1e-05 |  | < 1e-05 |
| G7U G13C G35U G37A | < 1e-05 |  | < 1e-05 |  |  |
| G59C A64U | < 1e-05 | < 1e-05 |  | < 1e-05 | < 1e-05 |
| A6C G7A | < 1e-05 | < 1e-05 |  |  |  |
| G59A G60U |  | < 1e-05 | < 1e-05 | < 1e-05 | < 1e-05 |
| G63A U65G G66U |  |  | < 1e-05 | < 1e-05 | < 1e-05 |
| A6U G66A C67G | < 1e-05 |  |  |  |  |
| G7A G32U G43C | < 1e-05 | < 1e-05 |  |  |  |
| A6U G35C | < 1e-05 | < 1e-05 |  | < 1e-05 |  |
| C8U C71G | < 1e-05 | < 1e-05 | < 1e-05 |  |  |
| G60C A64C | < 1e-05 | < 1e-05 | < 1e-05 | < 1e-05 | < 1e-05 |
| G7U A33C C67A C68U | < 1e-05 |  | < 1e-05 |  |  |
| G7A G40A | < 1e-05 | < 1e-05 |  |  |  |
| C61U G62C |  | < 1e-05 | < 1e-05 | < 1e-05 | < 1e-05 |
| G7U C61U | < 1e-05 | < 1e-05 |  | < 1e-05 |  |
| G59U C61G A64G |  | < 1e-05 | < 1e-05 | < 1e-05 | < 1e-05 |
